Experimental data as given in patent US20040063790A1, “Methods for inhibition of angiogenesis” (The Scripps Research Institute, priority 1996, published 2004).

How the values were obtained:
[1] = system: αvβ3-expressing CS-1 cells; assay: Inhibition of cell attachment assay; format: cell-based, hamster
Experimental: As one means to determine integrin receptor specificity of the antagonists of this invention, inhibition of cell attachment assays were performed as described below.
Briefly, CS-1 hamster melanoma cells lacking expression of αvβ3 and αvβ5 were first transfected with an plasmid for expressing the […] as previously described by Filardo et al., J. Cell Biol., 130:441-450 (1995). Specificity of potential αvβ3 antagonists was determined by the ability to block the binding of αvβ3-expressing CS-1 cells to VN or laminin coated plates. As an example of a typical assay, the wells were first coated with 10 μg/ml substrate overnight. After rinsing and blocking with 1% heat-denatured BSA in PBS at room temperature for 30 minutes, peptide 85189 (SEQ ID NO: 15) over a concentration range of 0.0001 μM to 100 μM, was separately mixed with CS-1 cells for applying to wells with a cell number of 50, 000 cells/well. After a 10-15 minute incubation at 37° C., the solution containing the cells and peptides was discarded. The number of attached cells was then determined following staining with 1% crystal violet. Cell associated crystal violet was eluted by the addition of 100 microliters (μl) of 10% acetic acid. Cell adhesion was quantified by measuring the optical density of the eluted crystal violet at a wave length of 600 nm.

αIIbβ3 = target: T1, αIIbβ3 (Homo sapiens, UniProt P05106+P08514); assay: Solid phase receptor binding assay (iodinated MMP-2, labeled fusion proteins)
T1 construct: selected purified integrins were separately immobilized in Titertek microtiter wells

αvβ3 = target: T2, αvβ3 (Homo sapiens, UniProt P05106+P06756); assay: as above
T2 construct: selected purified integrins were separately immobilized in Titertek microtiter wells
T2 sequence (P06756 31-889 limits assumed): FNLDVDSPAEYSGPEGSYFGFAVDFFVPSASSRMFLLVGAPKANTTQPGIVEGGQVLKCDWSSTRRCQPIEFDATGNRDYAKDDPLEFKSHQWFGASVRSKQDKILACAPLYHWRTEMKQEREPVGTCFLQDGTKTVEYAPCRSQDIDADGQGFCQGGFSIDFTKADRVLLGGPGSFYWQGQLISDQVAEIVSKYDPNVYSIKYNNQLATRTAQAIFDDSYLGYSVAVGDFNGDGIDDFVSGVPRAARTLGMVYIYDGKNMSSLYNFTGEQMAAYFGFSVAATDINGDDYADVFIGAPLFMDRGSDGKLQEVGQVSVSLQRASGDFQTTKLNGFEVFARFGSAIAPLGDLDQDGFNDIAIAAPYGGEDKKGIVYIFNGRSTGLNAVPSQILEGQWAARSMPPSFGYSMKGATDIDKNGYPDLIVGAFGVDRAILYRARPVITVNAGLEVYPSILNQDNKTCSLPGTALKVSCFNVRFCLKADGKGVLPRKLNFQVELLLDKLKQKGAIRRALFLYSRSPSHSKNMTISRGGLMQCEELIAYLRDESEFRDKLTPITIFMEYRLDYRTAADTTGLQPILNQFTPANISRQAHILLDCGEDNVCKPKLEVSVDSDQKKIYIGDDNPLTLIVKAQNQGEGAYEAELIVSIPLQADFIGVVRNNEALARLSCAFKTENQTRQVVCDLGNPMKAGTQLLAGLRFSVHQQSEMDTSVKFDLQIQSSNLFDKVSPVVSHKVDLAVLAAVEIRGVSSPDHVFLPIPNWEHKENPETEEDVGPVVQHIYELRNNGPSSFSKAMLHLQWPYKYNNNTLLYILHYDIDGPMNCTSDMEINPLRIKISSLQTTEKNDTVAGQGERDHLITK
T2 sequence (P06756 891-1048 partner limits assumed): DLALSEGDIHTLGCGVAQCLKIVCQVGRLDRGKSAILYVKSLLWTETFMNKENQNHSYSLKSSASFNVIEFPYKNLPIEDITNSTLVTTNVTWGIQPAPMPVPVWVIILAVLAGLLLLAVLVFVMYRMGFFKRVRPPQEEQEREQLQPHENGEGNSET
T2 sequence (P05106 27-788): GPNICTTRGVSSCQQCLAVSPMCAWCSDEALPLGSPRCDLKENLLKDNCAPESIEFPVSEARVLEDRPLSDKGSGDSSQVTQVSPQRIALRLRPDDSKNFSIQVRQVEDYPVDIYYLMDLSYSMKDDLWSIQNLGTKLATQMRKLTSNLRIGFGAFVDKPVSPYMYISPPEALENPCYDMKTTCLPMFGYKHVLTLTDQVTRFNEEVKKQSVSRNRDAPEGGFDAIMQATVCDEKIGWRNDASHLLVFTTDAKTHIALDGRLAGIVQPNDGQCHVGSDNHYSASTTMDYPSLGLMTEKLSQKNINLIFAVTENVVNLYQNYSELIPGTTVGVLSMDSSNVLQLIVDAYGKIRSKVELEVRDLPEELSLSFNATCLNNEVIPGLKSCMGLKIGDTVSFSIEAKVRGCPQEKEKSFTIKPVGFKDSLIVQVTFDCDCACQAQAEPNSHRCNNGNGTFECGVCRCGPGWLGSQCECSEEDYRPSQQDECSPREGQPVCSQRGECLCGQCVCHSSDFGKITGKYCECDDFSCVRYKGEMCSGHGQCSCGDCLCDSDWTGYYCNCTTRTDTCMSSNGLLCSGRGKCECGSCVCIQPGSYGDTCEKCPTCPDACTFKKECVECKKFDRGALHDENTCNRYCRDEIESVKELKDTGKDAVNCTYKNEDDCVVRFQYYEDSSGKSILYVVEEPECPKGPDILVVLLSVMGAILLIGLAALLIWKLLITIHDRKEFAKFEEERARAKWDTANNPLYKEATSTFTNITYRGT
Experimental: In addition, the ability of peptides to inhibit the binding of either MMP-2 or VN to immobilized αvβ3 was assessed with peptides 69601 (SEQ ID NO: 6) and 66203 (SEQ ID NO: 5).
Specificity of receptor interaction with MMP-2-derived antagonists was confirmed with binding and inhibition of binding solid phase assays. […] In addition, the binding of labeled GST2-4 was competed by unlabeled GST2-4.

[2] = system: bFGF-induced angiogenesis; assay: CAM assay, growth factor-induced angiogenesis, intravenous application; format: in vivo, chick; settings: 50 μg fusion protein; after 48 and 72 hours
Experimental: J. Pathol., 79:597 (1975). CAMs were prepared from chick embryos for subsequent induction of angiogenesis and inhibition thereof as described in Examples 4 and 5, respectively. Ten day old chick embryos were obtained from McIntyre Poultry (Lakeside, Calif.) and incubated at 37° C. with 60% humidity. A small hole was made through the shell at the end of the egg directly over the air sac with the use of a small crafts drill (Dremel, Division of Emerson Electric Co. Racine Wis.). A second hole was drilled on the broad side of the egg in a region devoid of embryonic blood vessels determined previously by candling the egg. […] A 1.0 centimeter (cm)×1.0 cm square window was cut through the shell over the dropped CAM with the use of a small model grinding wheel (Dremel). The small window allowed direct access to the underlying CAM.
Angiogenesis was induced by placing a 5 millimeter (mm)×5 mm Whatman filter disk (Whatman Filter paper No.1) saturated with Hanks Balanced Salt Solution (HBSS, GIBCO, Grand Island, N.Y.) or HBSS containing 150 nanograms/milliliter (ng/ml) recombinant basic fibroblast growth factor (bFGF) (Genzyme, Cambridge, Mass.) on the CAM of a 10-day chick embryo in a region devoid of blood vessels and the windows were latter sealed with tape. In other assays, 125 ng/ml bFGF was also effective at inducing blood vessel growth. For assays where inhibition of angiogenesis ws evaluated with intravenous injections of antagonists, angiogenesis was first induced with 1-2 μg/ml bFGF in fibroblast growth medium. Angiogenesis was monitored by photomicroscopy after 72 hours. CAMs were snap frozen, and 6 um cryostat sections were fixed with acetone and stained by immunofluorescence as described in Example 3C with 10 μg/ml of either anti-β1 monoclonal antibody CSAT or LM609.
For CAM preparations in which angiogenesis was induced with 1-2 μg/ml bFGF as previously described, synthetic peptides 69601 (control) and 66203 (SEQ ID NO: 5) were separately intravenously injected into CAM preparations 18 hours after bFGF induction of angiogenesis. The preparations were maintained for an additional 36-40 hours after which time the number of branch points were determined as previously described.
In other assays, peptide 85189 (SEQ ID NO: 15) was evaluated for inhibiting bFGF-induced angiogenesis in the CAM assay over a dosage range of 10 μg/embryo to 300 μg/embryo. The assay was performed as previously described.
In still further assays, peptide 85189 was compared to peptides 69601 and 66203 for anti-angiogenesis activity. The assay was performed as described above with the exception that 50 μg peptide were used.
The effectiveness of the different salt formulations of peptide 85189 was also evaluated in similar bFGF-induced CAM assays. The peptides were used at 100 μg/embryo. […] Untreated CAMs, labeled as “no cytokine” had approximately […] as many branch points as that seen with bFGF treatment, respectively 70 versus 190.
With the above-described protocol, the effect of MMP-2 fusion proteins, CTMMP-2(2-4), also referred to as CTMMP-2(445-467) and CTMMP-2(10-1), also referred to as CTMMP-2(274-637) was also evaluated. The assay was performed as previously described with the exception that 50 μg of fusion protein was administered to the bFGF-treated embryos. The effect of fusion protein treatment was assessed at 24 hours, 48 hours and 72 hours.
The 10 day old CAM preparation was used as previously described in Example 5A. Twenty-four hours after bFGF-induced angiogenesis was initiated, the organic peptidomimetics referred to as compounds 16 (81218), 17 (87292) and 18 (87293) were separately intravenously injected into the CAM preparation in a volume of 100 μl at a concentration of 1 mg/ml (100 μg/embryo) in 20% tetraglycol-PBS at pH 7.0. In parallel assays, compounds 7 (96112), 9 (99799), 10 (96229), 12 (112854) and 14 (96113) were similarly evaluated. […]

CS-1 tumor (β3-negative) = assay: CS-1 tumor growth in CAM; format: in vivo, chick; settings: 50 μg intravenously after 24 hours of tumor growth; mass after 6 days; versus CTMMP-2(10-1) or PBS
Experimental: A CS-1 tumor (β3-negative) was prepared in a CAM as described above. After 24 hours of tumor growth, a composition of MMP-2 fragment, designated CTMMP-2(2-4) and prepared as described in Example 2A, was administered intraveneously at 50 μg fragment in 100 μl of PBS. After 6 days, the tumor was evaluated for mass. Tumors treated with CTMMP-2(2-4) were reduced in growth rate by about 50% when compared to the growth rate of control tumors treated with CTMMP-2(10-1) or with PBS control.

| bound iodinated MMP-2 on immobilized αIIbβ3 (αIIbβ3) | bound iodinated MMP-2 on immobilized αvβ3 (αvβ3) [cpm] | competition of labeled GST2-4 binding by unlabeled protein (αvβ3) | inhibition of binding of iodinated MMP-2 to αvβ3 (αvβ3; FIG. 8) | binding of 125I-labeled fusion protein to αvβ3 (αvβ3; FIG. 9) | Molecule | inhibition of β3-expressing CS-1 cell adhesion to laminin [1] | inhibition of β3-expressing CS-1 cell adhesion to vitronectin [1] | inhibition of bFGF-induced angiogenesis by fusion protein [2] | reduction in tumor growth rate (CS-1 tumor (β3-negative)) |
| --- | --- | --- | --- | --- | --- | --- | --- | --- | --- |
| approximately 10 CPM | 300 | – | – | – | MMP-2: matrix metalloproteinase-2, intact protein (protein) APSPIIKFPGDSTPKTDKELAVQYLNKYYGCPKDNCNLFVLKDTLKKMQKFFGLPETGDLDQNTIETMKKPRCGNPDVANYNFFPRKPKWEKNHITYRIIGYTPDLDPETVDDAFARAFKVWSDVTPLRFNRINDGEADIMINFGRWEHGDGYPFDGKDGLLAHAFAPGPGIGGDSHFDDDELWTLGEGQVVRVKYGNADGEYCKFPFWFNGKEYNSCTDAGRNDGFLWCSTTKDFDADGKYGFCPHESLFTMGGNGDGQPCKFPFKFQGQSYDQCTTEGRTDGYRWCGTTEDYDRDKKYGFCPETAMSTVGGNSEGAPCVFPFIFLGNKYDSCTSAGRNDGKLWCASTSSYDDDRKWGFCPDQGYSLFLVAAHEFGHAMGLEHSEDPGALMAPIYTYTKNFRLSQDDIKGIQELYEVSPDVEPGPGPGPGPGPRPTLGPVTPELCKHDIVFDGVAQIRGEIFFFKDRFMWRTVNPRGKPTGPLLVATFWPDLPEKIDAVYESPQDEKAVFFAGNEYWVYTASNLDRGYPKKLTSLGLPPDVQRIDAAFNWGRNKKTYIFSGDRYWKYNEEKKKMELATPKFIADSWNGVPDNLDAVLGLTDSGYTYFFKDQYYLQMEDKSLKIVKIGKISSDWLGC | but not laminin | inhibited | – | – |
| – | – | competed | inhibited the binding of iodinated MMP-2 | bound | CTMMP-2(2-4): GST fusion protein of chicken MMP-2 C-terminal residues 445-637 (protein, left off: a dimerising Fc or GST) LCKHDIVFDGVAQIRGEIFFFKDRFMWRTVNPRGKPTGPLLVATFWPDLPEKIDAVYESPQDEKAVFFAGNEYWVYTASNLDRGYPKKLTSLGLPPDVQRIDAAFNWGRNKKTYIFSGDRYWKYNEEKKKMELATPKFIADSWNGVPDNLDAVLGLTDSGYTYFFKDQYYLQMEDKSLKIVKIGKISSDWLGC | but not laminin | inhibited | almost completely inhibited | about 50% |
